Measured values from article PMC7954794, “Protein context shapes the specificity of SH3 domain-mediated interactions in vivo” (Nature Communications, 2021).

Tested on: growth of yeast strains under 51 stress conditions
Assay: Growth assays in 51 stress conditions (Fig. 1E-F, S2D, S5B)
Type: cell-based, Saccharomyces cerevisiae
Parameters: key to Growth (Fig. S2D) / growth of ABP1 SH3-swapped strains in stress condition: log2 colony size, average of median per strain (growth score)
Conditions: FigS2D
Outline: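 Yeast WT, SH3-deleted, KO, SH3-swapped and SH3-shuffled strains pinned in 1536 format, 12 replicates each; pregrown on YPD 2 days at 30 °C, then replicated onto 51 media at 37 °C and imaged every 2 h. Growth score = mean of per-plate median log2 colony size at 74 h.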

B1: SDC25 (protein, UniProt P0CF34 1-1048, looked up)
Putative truncated guanine …: MPITSSPDLFYLNDCDVVYWYDLTRLVCHYVNLTERDLLANEREKFLTSLDLLTAQITYVYMLFRNLRLVEDSFKKTLKKLIYTLSRFSINANIWFHSTLFEEREAIASQKDPERRSPLLQSILGTFQKFHFLLRLLHFLSNPNELTILPQLTPRFFKDSFNTISWNNPFLRKRLNQHMSHDLPRQMIKAVAGASGIVAENIDEIPASKQGTSCSSETSHHSPSAPFQRRRRGTIFSNVSGSSDESDTIWSKRKKPYPLNEETLSLVRARKKQLDGKLKQMIKSANEYLSNTANFSKMLNFEMNFKTYEEVSGTIPIIDILENLDLTIFLNLRELGDENRVFDEDVAIDDEDEEFLKHSLSSLSYILSDYFNMKQYFHDVVVKFIIVAQHLTLEDPFVFSPMQNDLPTGYYEPMKPSSLNLDNAKDKKNGSQNTDIQEEEDEYEPDPDSLILFHNLINQDSDFNDLKFFNLAHVFKKSCDDYFDVLKLAIEFVNQLILERENLLNYAARMMKNNITELLLRGEEGYGSYDGGETAEKSDTNAVYADSDTKDNDEWRDSQVKLPRYLQREYDSELIWGSNNRIKGGSKHALISYLTDNEKKDLFFDITFLITFRSIFTTTEFLSYLISQYNLDPPEDLCFEEYNEWVTKKLIPVKCRVVEIMTTFFKQYWFLGYDEPDLATLNLDYFAQVAIKENITGSVELLKEVNQKFKHGNIQEATAPMKTLDQQICQDHYSGTLYSTTESILAVDPVLFATQLTILEHEIYCEITIFDCLQKIWKNKYTKSYGASPGLNEFISFANKLTNFISYSVVKEADKSKRAKLLSHFIFIAEYCRKFNNFSSMTAIISALYSSPIYRLEKTWQAVIPQTRDLLQSLNKLMDPKKNFINYRNELKSLHSAPCVPFFGVYLSDLTFTDSGNPDYLVLEHGLKGVHDEKKYINFNKRSRLVDILQEIIYFKKTHYDFTKDRTVIECISNSLENIPHIEKQYQLSLIIEPKPRKKVVPNSNSNNKSQEKSRDDQTDEGKTSTKKDRFPKFQLHKTKKKAPKVSK
With B1 the “growth of ABP1 SH3-swapped strains in stress condition” value (from here on “growth of ABP1 SH3-swapped strains”) (Bathophenanthroline.0.1uM) was 10.8364, the “growth of ABP1 SH3-swapped strains” value (Bathophenanthroline.10uM) was 10.6904 and the “growth of ABP1 SH3-swapped strains” value (Bathophenanthroline.1uM) was 10.7994. The “growth of ABP1 SH3-swapped strains” value (CaCl2.100mM) was 10.8248, the “growth of ABP1 SH3-swapped strains” value (CaCl2.250mM) was 10.7599 and the “growth of ABP1 SH3-swapped strains” value (CaCl2.500mM) was 10.2626. For the same molecule, the “growth of ABP1 SH3-swapped strains” value (Caffein.10mM) was 10.0769, the “growth of ABP1 SH3-swapped strains” value (Caffein.2mM) was 11.0485 and the “growth of ABP1 SH3-swapped strains” value (CdCl2.100uM) was 9.5. The “growth of ABP1 SH3-swapped strains” value (CdCl2.10uM) was 10.8639, the “growth of ABP1 SH3-swapped strains” value (CdCl2.50uM) was 9.958 and the “growth of ABP1 SH3-swapped strains” value (CuSO4.1mM) was 10.5113. For the same molecule, the “growth of ABP1 SH3-swapped strains” value (CuSO4.5mM) was 8.27, the “growth of ABP1 SH3-swapped strains” value (Cycloheximide.0.05.uM) was 11.0819 and the “growth of ABP1 SH3-swapped strains” value (Cycloheximide.0.2.uM) was 10.7047. For the same molecule, the “growth of ABP1 SH3-swapped strains” value (Cycloheximide.0.5.uM) was 10.178, the “growth of ABP1 SH3-swapped strains” value (DMSO.2.) was 11.0639 and the “growth of ABP1 SH3-swapped strains” value (DMSO.6.) was 9.8939. For the same molecule, the “growth of ABP1 SH3-swapped strains” value (DMSO.8.) was 9.304, the “growth of ABP1 SH3-swapped strains” value (Ethanol.2.) was 10.7995 and the “growth of ABP1 SH3-swapped strains” value (Ethanol.6.) was 10.2862. For the same molecule, the “growth of ABP1 SH3-swapped strains” value (Ethanol.8.) was 10.1201, the “growth of ABP1 SH3-swapped strains” value (Galactose.2.) was 10.8278 and the “growth of ABP1 SH3-swapped strains” value (Glycerol.2.) was 9.649. The “growth of ABP1 SH3-swapped strains” value (Hydroxyurea.25mM) was 10.7663, the “growth of ABP1 SH3-swapped strains” value (Hygromycin.190uM) was 10.9932 and the “growth of ABP1 SH3-swapped strains” value (Hygromycin.19uM) was 11.0621. The “growth of ABP1 SH3-swapped strains” value (Hygromycin.95uM) was 11.0036, the “growth of ABP1 SH3-swapped strains” value (MMS.0.004.) was 10.9622 and the “growth of ABP1 SH3-swapped strains” value (MMS.0.02.) was 10.7008. The “growth of ABP1 SH3-swapped strains” value (MMS.0.04.) was 9.99, the “growth of ABP1 SH3-swapped strains” value (Menadione.100uM) was 10.5981 and the “growth of ABP1 SH3-swapped strains” value (Menadione.200uM) was 10.4339. The “growth of ABP1 SH3-swapped strains” value (Menadione.50uM) was 10.8229, the “growth of ABP1 SH3-swapped strains” value (NaCl.0.25M) was 10.7913 and the “growth of ABP1 SH3-swapped strains” value (NaCl.1M) was 9.689. The “growth of ABP1 SH3-swapped strains” value (Nitroquinoline.10uM) was 10.6447, the “growth of ABP1 SH3-swapped strains” value (Nitroquinoline.50uM) was 10.5332 and the “growth of ABP1 SH3-swapped strains” value (Nystatin.0.01uM) was 11.0104. The “growth of ABP1 SH3-swapped strains” value (Nystatin.0.1uM) was 10.9861, the “growth of ABP1 SH3-swapped strains” value (Raffinose.2.) was 11.0244 and the “growth of ABP1 SH3-swapped strains” value (Rapamycin.10nM) was 9.868. The “growth of ABP1 SH3-swapped strains” value (Rapamycin.50nM) was 9.322, the “growth of ABP1 SH3-swapped strains” value (SC.pH3) was 10.4118 and the “growth of ABP1 SH3-swapped strains” value (SC.pH6) was 11.0555. The “growth of ABP1 SH3-swapped strains” value (SDS.0.01.) was 10.9877, the “growth of ABP1 SH3-swapped strains” value (SDS.0.02.) was 11.0022 and the “growth of ABP1 SH3-swapped strains” value (SDS.0.05.) was 10.9318. For the same molecule, the “growth of ABP1 SH3-swapped strains” value (Sorbitol.10mM) was 10.9817, the “growth of ABP1 SH3-swapped strains” value (Sorbitol.1mM) was 11.0284 and the “growth of ABP1 SH3-swapped strains” value (Sorbitol.5mM) was 10.9056.

B2: SHO1 (protein, UniProt P40073 1-367, looked up)
High osmolarity signaling …: MSISSKIRPTPRKPSRMATDHSFKMKKFYADPFAISSISLAIVSWVIAIGGSISSASTNESFPRFTWWGIVYQFLIICSLMLFYCFDLVDHYRIFITTSIAVAFVYNTNSATNLVYADGPKKAAASAGVILLSIINLIWILYYGGDNASPTNRWIDSFSIKGIRPSPLENSLHRARRRGNRNTTPYQNNVYNDAIRDSGYATQFDGYPQQQPSHTNYVSSTALAGFENTQPNTSEAVNLHLNTLQQRINSASNAKETNDNSNNQTNTNIGNTFDTDFSNGNTETTMGDTLGLYSDIGDDNFIYKAKALYPYDADDDDAYEISFEQNEILQVSDIEGRWWKARRANGETGIIPSNYVQLIDGPEEMHR
In the case of B2, the “growth of ABP1 SH3-swapped strains” value (Bathophenanthroline.0.1uM) is reported as 10.8666, the “growth of ABP1 SH3-swapped strains” value (Bathophenanthroline.10uM) is reported as 10.6802 and the “growth of ABP1 SH3-swapped strains” value (Bathophenanthroline.1uM) is reported as 10.8165. The “growth of ABP1 SH3-swapped strains” value (CaCl2.100mM) was 10.8196, the “growth of ABP1 SH3-swapped strains” value (CaCl2.250mM) was 10.7666 and the “growth of ABP1 SH3-swapped strains” value (CaCl2.500mM) was 10.33. For the same molecule, the “growth of ABP1 SH3-swapped strains” value (Caffein.10mM) was 9.975, the “growth of ABP1 SH3-swapped strains” value (Caffein.2mM) was 10.938 and the “growth of ABP1 SH3-swapped strains” value (CdCl2.100uM) was 9.34. The “growth of ABP1 SH3-swapped strains” value (CdCl2.10uM) was 10.884, the “growth of ABP1 SH3-swapped strains” value (CdCl2.50uM) was 9.827 and the “growth of ABP1 SH3-swapped strains” value (CuSO4.1mM) was 10.4931. The “growth of ABP1 SH3-swapped strains” value (CuSO4.5mM) was 7.806, the “growth of ABP1 SH3-swapped strains” value (Cycloheximide.0.05.uM) was 11.0905 and the “growth of ABP1 SH3-swapped strains” value (Cycloheximide.0.2.uM) was 10.7035. The “growth of ABP1 SH3-swapped strains” value (Cycloheximide.0.5.uM) was 10.0394, the “growth of ABP1 SH3-swapped strains” value (DMSO.2.) was 11.0205 and the “growth of ABP1 SH3-swapped strains” value (DMSO.6.) was 9.808. The “growth of ABP1 SH3-swapped strains” value (DMSO.8.) was 8.962, the “growth of ABP1 SH3-swapped strains” value (Ethanol.2.) was 10.7684 and the “growth of ABP1 SH3-swapped strains” value (Ethanol.6.) was 10.4049. The “growth of ABP1 SH3-swapped strains” value (Ethanol.8.) was 10.2263, the “growth of ABP1 SH3-swapped strains” value (Galactose.2.) was 10.8154 and the “growth of ABP1 SH3-swapped strains” value (Glycerol.2.) was 9.771. For the same molecule, the “growth of ABP1 SH3-swapped strains” value (Hydroxyurea.25mM) was 10.7838, the “growth of ABP1 SH3-swapped strains” value (Hygromycin.190uM) was 10.9371 and the “growth of ABP1 SH3-swapped strains” value (Hygromycin.19uM) was 10.9563. The “growth of ABP1 SH3-swapped strains” value (Hygromycin.95uM) was 10.9936, the “growth of ABP1 SH3-swapped strains” value (MMS.0.004.) was 10.9851 and the “growth of ABP1 SH3-swapped strains” value (MMS.0.02.) was 10.7181. For the same molecule, the “growth of ABP1 SH3-swapped strains” value (MMS.0.04.) was 10.0309, the “growth of ABP1 SH3-swapped strains” value (Menadione.100uM) was 10.5941 and the “growth of ABP1 SH3-swapped strains” value (Menadione.200uM) was 10.4073. The “growth of ABP1 SH3-swapped strains” value (Menadione.50uM) was 10.7963, the “growth of ABP1 SH3-swapped strains” value (NaCl.0.25M) was 10.8224 and the “growth of ABP1 SH3-swapped strains” value (NaCl.1M) was 9.702. For the same molecule, the “growth of ABP1 SH3-swapped strains” value (Nitroquinoline.10uM) was 10.7342, the “growth of ABP1 SH3-swapped strains” value (Nitroquinoline.50uM) was 10.7229 and the “growth of ABP1 SH3-swapped strains” value (Nystatin.0.01uM) was 11.0733. The “growth of ABP1 SH3-swapped strains” value (Nystatin.0.1uM) was 11.0089, the “growth of ABP1 SH3-swapped strains” value (Raffinose.2.) was 11.0381 and the “growth of ABP1 SH3-swapped strains” value (Rapamycin.10nM) was 9.786. For the same molecule, the “growth of ABP1 SH3-swapped strains” value (Rapamycin.50nM) was 9.424, the “growth of ABP1 SH3-swapped strains” value (SC.pH3) was 10.389 and the “growth of ABP1 SH3-swapped strains” value (SC.pH6) was 11.0143. The “growth of ABP1 SH3-swapped strains” value (SDS.0.01.) was 10.9726, the “growth of ABP1 SH3-swapped strains” value (SDS.0.02.) was 10.9605 and the “growth of ABP1 SH3-swapped strains” value (SDS.0.05.) was 10.8495. The “growth of ABP1 SH3-swapped strains” value (Sorbitol.10mM) was 10.9902, the “growth of ABP1 SH3-swapped strains” value (Sorbitol.1mM) was 11.0334 and the “growth of ABP1 SH3-swapped strains” value (Sorbitol.5mM) was 10.9353.
